Results from PMC11363321.

Test system: Deoxymab-3 (DX3), humanized 3E10 antinuclear IgG1 (humanized (3E10 CDRs from MRL/lpr mouse on human IgG1 framework))
Test: SPR
Conditions: 1:1 kinetic fit, SPR Biacore T200, CM5 chip with neutravidin, biotinylated ssDNA (0.025 uM) immobilized, DX3 in PBS pH 7.4, contact 120 s, dissociation 400 s, temperature not …

## 30-mer single-stranded DNA oligonucleotide
Experiment 1, DX3 titrated from 500 nM
  Kd: 113 nM
Experiment 2 (replicate)
  Kd: 112 nM
